Experimental data published in PMC9703647 (Nature, 2022).

Target: the molecule itself
Experiment: cross-linking

B1: GSDMA_(1–246) (domain or fragment, human, UniProt Q96QA5 1-246, looked up)
chain: MTMFENVTRALARQLNPRGDLTPLDSLIDFKRFHPFCLVLRKRKSTLFWGARYVRTDYTLLDVLEPGSSPSDPTDTGNFGFKNMLDTRVEGDVDVPKTVKVKGTAGLSQNSTLEVQTLSVAPKALETVQERKLAADHPFLKEMQDQGENLYVVMEVVETVQEVTLERAGKAEACFSLPFFAPLGLQGSINHKEAVTIPKGCVLAFRVRQLMVKGKDEWDIPHICNDNMQTFPPGEKSGEEKVILIQ
- binding result: binds
